{"source": "the DeepSol protein solubility set", "assay": "soluble on expression in E. coli; label from the status in PepcDB or PDB records", "data": [{"sequence": "TSPLYTGAVPRANRIVQQLVEAGADLANIRTMFRNMLRGEEMILSRAEQNVFLQHFPDMLPCGIDRNSELAIALREALRRADSQQAARAPARTPPRSSVRTPERSPAPRTATESSSGSNQRSLLGRFAGLMTSNQRRPSSASNASTSQRPVDRNPPRINLMPTGANRVAMRNRGNNEADAALQALAQNGINMEDLRAALEAYIVWLRPIPLDIANALEGVGITPRFDNPEEAKVDNPLMNLSSALKRRLDA", "values": [{"measurement": "soluble on expression in E. coli", "value": "not soluble"}]}, {"sequence": "MGSDKIHHHHHHMSSSGYVPDNKNLKKSSGTPNLFFDSRKNIFFKRDEKNVAYEVTSTQLPAMIGGAFVDLFMTKGHMREPHWHPNAWELDVVVSGEAVTSILNPETNQLQNYHMKAGQTVFIPMGWWHWITAVTEEVQLHLFFNNDQFETAEGSDILRLTPPEVFQAAYGVSAEKLGKDLSPIKESVVIGPPNLNRIKGVKESDDSNIVVTLNGQITSCEIE", "values": [{"measurement": "soluble on expression in E. coli", "value": "not soluble"}]}, {"sequence": "MIADWLEQNGYPISSQVLKTEMSGNYMESAEKHVENGEKIDNLLRSQLKIDIRDGTGDDFERKSIKSIGAGRPFAKINMVDKQRAPLKITPLSDEEFRKTMRKRMEMERERLARLSNQAEDDSDDSSSSSDSSTSSASSSSEEKLTFSDILGKPTAAGAEKMIELSQIPNAWGPSKSALVTDDVASTSDPLPAIFNAHLPPLSMGRPPLTKSAKSREIDAIFGSDNVDYDLEDFEQDGVAKKKSILPMEKKKEEAKPKEQELVEPLVLSEGESIDELEDFDTGLLSSGGSDYSF", "values": [{"measurement": "soluble on expression in E. coli", "value": "not soluble"}]}, {"sequence": "MAYWRKWRTSMNLEALPKYYSPKSPKLSDAAPATGSGGLTITDVMAAQGMVQSKAPLGFALFLAKAGVQDPQFAIEGLLNYAMALDNPTLNKLSEEIRLQIIPYLVSFAFADYSRSAASKARCEPCAGTGFHNVLREVVKYSRSGESVIKEEWVKELCQHCHGKGEVSTACRGCKGKGIVLDEKRTRLHGAPVYKICGRCNGNRFSRLPTTLARCHVQKLVPDLTDYQWYKGYADVIDKLVTKCWQEEAYAEVQLRKVTR", "values": [{"measurement": "soluble on expression in E. coli", "value": "not soluble"}]}, {"sequence": "MGSDKIHHHHHHMRPDCTDFRQLFLDDVPMMDMRAPVEFAKGAFPGVVNLPLMNDQERQKVGTCYKQQGQAAAIALGHQLVSGATKQARLEAWAAFAKAHPDGYLYCFRGGLRSQIVQGWLRDEAGIQYPRVKGGYKAMRTFLLETTQQAVEQCDFVLVGGLTGTGKTDVLHQLDNVLDLEGHANHRGSSFGKRATAQPAQIDFENQLAIDVLKKRARGIGQFVLEDEGRIVGSCTVPLELYQGMQHYPLVWLEDSFTNRVERILRDYVVNLSAEFKAVHGEEDGPRLFAERMLQSMANIYKRLGGERHQRLSEMLREALQEQQRSGAVDLHRGWIEGLLNEYYDPMYAYQRAAKAERIEFAGDAVEVREYLKARALRQPRK", "values": [{"measurement": "soluble on expression in E. coli", "value": "not soluble"}]}, {"sequence": "MGSDKIHHHHHHMMNSFYNGISGVKSNSFGIDITANNIANVNTTGFKYSDAQFKDIFYTTITTQSTNPAQGGYGSGAASSQVVFEQGSPVASDGEFDVALQGKGFFGVLGADGNAYYTRNGSFRRDANGYLVDSYGNFVLGTMNPAFTGINYSDRVAGLMGDYLNTGTPVNNGFTVNSNNSFSIGTTASQGAIKVPVNMYLPPQVTQNVKWSGSLNTNTTTEVVKVDLDPSKFNITKTEDGKYVVSGSVSKEDVFSAKAGDRIILNFTDDNGVKTSFEATLDENLNFKSNELDLKGLDENSIKLDTAQISTEQQKANKDILESPIYNADGSKSTLRVTLERVLPQEGDNIQYKAIAQIYDSNGNAVGNPTEGNMVFDKNGALLQNNITSIANPNGGTINIDLGSPYDANKPGSGYSGIYIKQGVEKNVVTQQDGVAEGFFEQYNISDDGSIVAQFSNGKNAIVGKLALYNFINEQGLVAMGDNIFAATANSGDASFIMKDGQVVNTAKFKGGFLEQSNVDLSAELSNLIVTQKAFDASSKSITTSDQMIQKAINMKR", "values": [{"measurement": "soluble on expression in E. coli", "value": "not soluble"}]}, {"sequence": "PTSSTTAALVMGDALAVALLEARGFTAEDFALSHPGGALGRKLLLRVNDIMHTGDEIPHVGLQATLRDALLEITRKNLGMTAICDDDMNIIGIFTDGDLRRVFDTGVDMRDASIADVMTRGGIRIRPGTLAVDALNLMQSRHITCVLVADGDHLLGVVHMHDLLRA", "values": [{"measurement": "soluble on expression in E. coli", "value": "soluble"}]}]}
